From patent US20080058263A1 (published 2008)
Changes are numbered by the printed parent chain.

T1: VEGFR-3-Fc (UniProt P35916 25-328)
T1 construct: domain: first three Ig domains; conditioned supernatant of 293T cells; also called VEGFR-3-Fc fusion protein; not shown: Fc fragment of the pIg vector
T1 sequence (looked up): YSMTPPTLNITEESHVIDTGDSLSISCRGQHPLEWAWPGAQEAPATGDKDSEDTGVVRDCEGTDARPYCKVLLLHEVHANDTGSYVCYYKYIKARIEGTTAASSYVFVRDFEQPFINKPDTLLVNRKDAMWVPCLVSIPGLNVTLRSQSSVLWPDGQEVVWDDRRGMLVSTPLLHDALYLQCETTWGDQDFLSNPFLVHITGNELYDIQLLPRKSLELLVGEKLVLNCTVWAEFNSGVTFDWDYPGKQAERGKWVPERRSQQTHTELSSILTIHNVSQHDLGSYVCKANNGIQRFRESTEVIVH

B1: 83-15 (ligand)
chain: AHYNTEILKFMDVYQRSYCHPIETLVDIFQEYPDEIEYIFKPPCVSVYRCGGCCNSEGLQCVPTEESNITMQIMRITVPLSQGPKPVTISFANHTSCRCMSKLDL
notes: clone entry
B2: 32-14 (ligand)
chain: GQNHHEVVKSIDNEWRKTQCMPIETLVDIFQEFGVATNTFFKPPCVSVYRCGGCCNDEGLECMNTSTSYLSKTLFEITVPLSQGPKPVTISFANHTSCRCMSKLD
notes: clone entry
B3: 72-9 (ligand)
chain: GQNHHEVVKSIDNEWRKTQCMPREVCIDVGKEFGVATNTFFKPPCVSVYRCGGCCNDEGLECVPTEESNITMQIMRITVPLSQGPKPVTISFLQHNKCECRPKKD
B4: 72-15 (ligand)
chain: B3 chain with D57S, E61Q, L93A, Q94N, N96T, K97S, E99R, R101M, P102S, K104L
B5: 34-9 (ligand)
chain: GQNHHEVVKSIDNEWRKTQCMPIETLVDIFQEFGVATNTFFKPSCVPLMRCGGCCNDEGLECVPTEESNITMQIMRITVPLSQGPKPVTISFLQHNKCECRPKKD
B6: 71-9 (ligand)
chain: GQNHHEVVKSIDNEWRKTQCMPREVCIDVGKEYPDEIEYIFKPSCVPLMRCGGCCNDEGLECVPTEESNITMQIMRITVPLSQGPKPVTISFLQHNKCECRPKKD
B7: 74-13 (ligand)
chain: GQNHHEVVKSIDNEWRKTQCMPREVCIDVGKEFGVATNTFFKPSCVPLMRCGGCCNDEGLECVPTEESNITMQIMRITVPLSQGPKPVTISFANHTSCRCMSKLD
B8: 32-11 (ligand)
chain: B5 chain with S44P, P47S, L48V, M49Y, D57S, E61Q
B9: 24-9 (ligand)
chain: AHYNTEILKSIDNEWRKTQCMPREVCIDVGKEFGVATNTFFKPSCVPLMRCGGCCNDEGLECVPTEESNITMQIMRITVPLSQGPKPVTISFLQHNKCECRPKKD
B10: 22-11 (ligand)
chain: B9 chain with S44P, P47S, L48V, M49Y, D57S, E61Q
B11: 22-9 (ligand)
chain: B9 chain with S44P, P47S, L48V, M49Y
B12: 72-13 (ligand)
chain: B7 chain with S44P, P47S, L48V, M49Y
B13: 32-9 (ligand)
chain: B5 chain with S44P, P47S, L48V, M49Y

Each binder was assayed against T2, VEGFR-1-Fc (UniProt P17948 27-338) (assay: receptor-Fc IP).
T2 construct: domain: first three Ig domains; expressed in Drosophila S2 cells, purified on Protein A sepharose; also called VEGFR-1-Fc fusion protein; not shown: Fc fragment from the Signal-pIgPlus vector
Outline: (§1)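 fusion protein at 400 ng/ml in an IP mix (PBS, 1.5% BSA, 0.06% Tween 20, 3 μg/ml heparin) was combined with sample supernatant at a 1:2 ratio. Bound ligand captured by immunoprecipitation with pentahistidine antibody.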

T2 sequence (P17948 27-338): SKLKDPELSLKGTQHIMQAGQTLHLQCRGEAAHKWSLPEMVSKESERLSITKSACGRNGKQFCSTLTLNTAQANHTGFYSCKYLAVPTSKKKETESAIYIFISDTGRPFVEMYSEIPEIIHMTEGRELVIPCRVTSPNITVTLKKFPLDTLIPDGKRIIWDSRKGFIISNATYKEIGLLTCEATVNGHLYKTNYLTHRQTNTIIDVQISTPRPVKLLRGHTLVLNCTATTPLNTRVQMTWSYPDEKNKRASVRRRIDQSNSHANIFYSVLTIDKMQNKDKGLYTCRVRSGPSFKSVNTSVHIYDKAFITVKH

| binding result | Binder |
| --- | --- |
| binds | B1 |
| no binding | B2 |
| no binding | B3 |
| no binding | B4 |
| no binding | B5 |
| no binding | B6 |
| no binding | B7 |
| no binding | B8 |
| no binding | B9 |
| no binding | B10 |
| no binding | B11 |
| no binding | B12 |
| no binding | B13 |

The binders below were run against T3, VEGFR-2-Fc (UniProt P35968 20-322) (assay: receptor-Fc IP).
T3 construct: domain: first 3 Ig domains; conditioned supernatant of 293T cells; also called VEGFR-2-Fc fusion protein; not shown: Fc fragment of the pIg vector
Outline: as §1

T3 sequence (P35968 20-322): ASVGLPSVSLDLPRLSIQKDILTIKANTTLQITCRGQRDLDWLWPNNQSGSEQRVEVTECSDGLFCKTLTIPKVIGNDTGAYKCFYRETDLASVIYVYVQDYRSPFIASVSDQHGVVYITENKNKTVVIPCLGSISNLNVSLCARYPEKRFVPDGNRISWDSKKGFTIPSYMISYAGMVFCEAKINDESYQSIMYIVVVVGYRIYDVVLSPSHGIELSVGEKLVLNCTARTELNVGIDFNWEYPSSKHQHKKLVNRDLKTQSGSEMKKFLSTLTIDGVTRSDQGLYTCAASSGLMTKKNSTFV

| binding result | Binder |
| --- | --- |
| binds | B1 |
| no binding | B2 |
| no binding | B3 |
| no binding | B4 |
| no binding | B5 |
| no binding | B6 |
| no binding | B7 |
| no binding | B8 |
| no binding | B9 |
| no binding | B10 |
| no binding | B11 |
| no binding | B12 |
| no binding | B13 |

These binders were tested against T1, VEGFR-3-Fc (assay: receptor-Fc IP).
Outline: as §1

| binding result | Binder |
| --- | --- |
| no binding | B1 |
| binds | B2 |
| no binding | B3 |
| no binding | B4 |
| no binding | B5 |
| no binding | B6 |
| no binding | B7 |
| binds | B8 |
| no binding | B9 |
| no binding | B10 |
| no binding | B11 |
| no binding | B12 |
| binds | B13 |
